This is an account of results in US20250019425A1 (ADRX, published 2025).

Positions count from the first letter of the chain named. Like-named read-outs stand apart in the source and are kept apart here.

A word on the EC50: it is the concentration that produces a half-maximal response. In general, Kd refers to the constant that tells how readily two partners part at equilibrium. A lower Kd goes with a tighter complex.

The target in assay [1] is T1, biotinylated TTR F87M L110M monomer (Avi_mTTR in vivo biotinylation construct) (human, biotin on the Avi tag (in vivo biotinylation by BirA)).
T1 construct: also called Biotinyl-Monomer; biotinyl-mTTR
Nature of the assay: indirect ELISA, biotinylated mTTR on Neutravidin plate, anti-mouse-HRP. On the technique in general: In an ELISA, binding on a coated surface is turned into a signal by an enzyme label.

For assay [2], the target named is TTR F87M L110M (monomeric TTR, mTTR), untagged (human, UniProt P02766 21-147). Put plainly: sandwich ELISA, antibody coated, untagged mTTR, HRP pan-TTR polyclonal detection.
Assay [3] concerns the target T1, biotinylated TTR F87M L110M monomer …. Nature of the assay: biolayer interferometry (Octet RED), antibody on anti-mouse biosensor, biotinylated TTR monomer. Background: In BLI a coated tip is dipped into the sample, and binding shifts an interference pattern.
In assay [4] the target is T2, TTR S112I (dimer TTR, dTTR), untagged (human, UniProt P02766 21-147). Put plainly: sandwich ELISA (Example 11): antibody coated on the plate, untagged TTR titrated, HRP-conjugated pan-TTR polyclonal antibody for detection.
Assay [5] addresses T3, wild-type TTR (wtTTR), untagged (human, UniProt P02766 21-147). Described as above.
The target of assay [6] is T2, TTR S112I (dimer TTR, dTTR), untagged. The description is as above. This is another data set of the same source.
Assay [7] has as its target T3, wild-type TTR (wtTTR), untagged. Described as above. This is another data set of the same source.
Assay [8] addresses T1, biotinylated TTR F87M L110M monomer …. Nature of the assay: indirect ELISA, biotinylated mTTR on Neutravidin plate, anti-mouse-HRP; indirect ELISA; biotinylated mTTR captured on Neutravidin plate, anti-mouse-HRP detection.
Assay [9] concerns the target T2, TTR S112I (dimer TTR, dTTR), untagged. Nature of the assay: sandwich ELISA (Example 11): antibody coated on the plate, untagged TTR titrated, HRP-conjugated pan-TTR polyclonal antibody for detection. This is another data set of the same source.
Assay [10] deals with T3, wild-type TTR (wtTTR), untagged. The assay is described as above. This is another data set of the same source.
The target of assay [11] is T1, biotinylated TTR F87M L110M monomer …. Nature of the assay: indirect ELISA, biotinyl-mTTR bound to avidin plates.
Assay [12] shares this target. Described as above. This is another data set of the same source.
In assay [13] the target is biotinylated TTR S112I (dimer TTR) (human, UniProt P02766 21-147). Put plainly: indirect ELISA (Examples 4 and 8): biotinylated TTR on Neutravidin plate, antibody titrated, HRP-conjugated anti-species antibody.

B1: murine anti-human monomer TTR antibody Ab6 (antibody, V domains shown)
VH: QVQLQQSGAELMKPGASVKLSCKATGYTFTGYWIEWVKQRPGHGLEWIGEILPGSGSTNYNEKFKGKATFTADTSSNTAYMQLSSLTTEDSAIYYCARLRGSSYPWYFDYWGQGTTLTVSS
VL: DIQMTQSPASLSVSVGETVTITCRASENIYSNLAWYQQKQGKSPQLLVYAATNLADGVPSRFSGSGSGTQYSLKINSLQSEDFGSYYCQHFWGTPYTFGGGTKLEIK
notes: Murine monoclonal antibody; entries are called Mouse Ab6 HC / LC but hold only the variable domains; also called Antibody 6
In the case of B1, the EC50 in assay [1] was 0.45 nM; in assay [2], ~12.7 nM. This molecule also returned a dissociation constant (Kd) in assay [3] of 11.4 nM.

B2: murine anti-human monomer TTR antibody Ab5 (antibody, V domains shown)
VH: EVQLQQSGAELVKPGASVKLSCTASGFNIKDYYMHWVKQRTEQGLEWIGRIDPEDGETKYAPKFQGKATITADTSSNTAYLQLSSLTSEDTAVYYCALLWLRRGRGYWGQGTTLTVSS
VL: DIQMTQSPSSLSASLGERVSLTCRASQEISGYLSWLQQKPDGTIKRLIYAASTLDSGVPKRFSGSRSGSDYSLTISSLESEDFADYYCLQYASYPPTFGAGTKLELK
notes: Murine monoclonal antibody; entries are called Mouse Ab5 HC / LC but hold only the variable domains; also called mAb 5; Antibody 5
For B2, the results for the EC50 in assay [1] and in [2] were 0.2 nM and ~14.2 nM, respectively. Binding in [3] was put at a Kd of 1.31 nM. Further, the binding result in assay [4] and in assay [5] was “no binding (tested: about 20 µM TTR)” throughout.

B3: murine anti-human monomer TTR antibody Ab7 (antibody, V domains shown)
VH: EVQLQQSGAELVKPGASVKLSCTASGFNIKDYYMHWVKQRTEQGLEWIGRIDPEDGETKYAPKFQGKATITADTSSNTAYLQLSSLTSEDTAVYYCARGKTPFAYWGQGTLVTVSA
VL: B2 VL with S56F, S67F, A92D, P96F, A100S, L106I
notes: Murine monoclonal antibody; entries are called Mouse Ab7 HC / LC but hold only the variable domains; also called Antibody 7
For B3, the EC50 in assay [2] is ~43.2 nM; in assay [8], 4.22 nM. For the same molecule, the binding result in assay [6] and in assay [7] was “no binding (tested: about 20 µM TTR)” each time.

B4: murine anti-human monomer TTR antibody Ab3 (antibody, V domains shown)
VH: EVQLQQSGPVLVKPGASVKMSCKASGYTFTDYYMNWVKQSHGKSLEWIGVINPYNGGTSYNQKFKGKATLTVDKSSSTAYMELNSLTSEDSAVYYCARDLTGTGGAMDYWGQGTSVTVSS
VL: QIVLTQSPAILSASPGEKVTMTCRASSSVSYMHWYQQKPGSSPKPWIYATSNLASGVPARFSGSGSGTSYSLTISRVEAEDAATYYCQQWSSNPLTFGAGTKLELK
notes: Murine monoclonal antibody; entries are called Mouse Ab3 HC / LC but hold only the variable domains; also called mAb 3; Antibody 3
With B4, the values for the EC50 in [1] and in [2] were 14.1 nM and 128 nM, respectively. The dissociation constant (Kd) in assay [3] worked out at 12.1 nM. In addition, the binding result in [9] and in assay [10] was “no binding (tested: about 20 µM TTR)” each time.

B5: Humanized Ab1 construct (antibody, V domains shown)
VH: QVQLVQSGAEVKKPGASVKVSCKASGYTFTSYWMHWVRQAPGQGLEWIGNIDPSDSETHYAQKFQGRATLTVDKSTSTVYMELSSLRSEDTAVYYCARGRNYWYFDVWGTGTMVTVSS
VL: DIQMTQSPSSLSASVGDRVTITCRASESVDNYGISFMNWFQQKPGKPPKLLIYAASNQGSGVPSRFSGSGSGTDFTLTISSLQPEDFATYYCQQSKEVPWTFGGGTKLEIK
notes: also called humanized antibody Ab1; humanized construct for Ab1
As to B5, the “fold weaker than the IgG2 form of Ab1” value in [11] is ~10 fold. The molecule also came in with an EC50 in assay [12] of 0.55 nM. Further, the binding result in [13] was “no binding (tested: about 60 nM antibody)”.

B6: murine anti-human monomer TTR antibody Ab2 (antibody, V domains shown)
VH: EVKLEQSGGGLVQPGGSMKLSCVASGFTFSNYWMNWVRQSPEKGLEWVAQIRLKSDNYATHYAESVKGRFTISRDDSKSSVYLQMNNLRAEDTGIYYCTGVFTYWGQGTLVTVSA
VL: NIVLTQSPASLAVSLGQRATISCRTSESVDSYGNSFMHWYQQKPGQPPKLLIYLASNLESGVPARFSGSGSRTDFTLTIDPVEADDAATYYCQQNNEDPMYTFGGGTKLEIK
notes: Murine monoclonal antibody; also called mAb 2; Antibody 2
Take B6: the 50% effective concentration (EC50) in assay [12] worked out at 0.16 nM; in assay [1], 1.45 nM; in [2], 98.9 nM. For the same molecule, binding in [3] was put at a Kd of 6.21 nM.
